From patent US20150148520A1
pIC50: −log10 of the molar value. Where “and” joins values, the source holds several entries; their conditions need not be identical. Equal values may be shown once.

How the values were obtained:
[1] = target: human IGF-1 receptor (human) (UniProt P08069); assay: cell-based or functional assay
[2] = target: insulin receptor, B subtype (UniProt P06213); assay: cell-based or functional assay
[3] = target: insulin receptor, A subtype (UniProt P06213); assay: cell-based or functional assay
[4] = target: human insulin receptor (human) (UniProt P06213); assay: cell-based or functional assay
[5] = target: human insulin receptor (human) (UniProt P06213); assay: SPA competition, [125I]-insulin, IR membranes

Substance | % (in vitro activity, IR-B) [2] | % (in vitro activity, IR-A) [3] | % Insulin Activity [1] | % Insulin Activity [2] | % Insulin Activity [3] | other results
Ala,B5: B^1(A5H10Y16L17)25-C^1-A^1(H8N18N21) (from UniProt P05019 49-110) (ligand) | 5.7% | – | – | – | – | % (in vitro activity, IGF-1 R) [1]: 2.5%
DP3(SC): B^1(H5,10Y16L17K29)29-A^1(H8,N18,21) (from UniProt P05019 49-110) (ligand) | – | 0.03% | – | – | – | –
DP3(TC): B^1(H5,10Y16L17K29)29: A^1(H8,N18,21) (ligand) | 33.1% | 160% | – | – | – | –
DP8Mut3KA14: B^1(H5,10Y16L17R29)30-C^1des9-12-A^1(H8,K14,N18,21) (from UniProt P05019 49-110) (ligand) | 12.6% | 132% | – | – | – | –
IGF-1 A (H8 A9 N21): B (H5D10Y16L17 A22) DPI A-COOH (ligand) | – | – | – | – | – | % Insulin [4]: 360% and 614%
IGF-1 A: B (H5D10Y16L17) (S═O) DPI (ligand) | – | – | – | – | – | % insulin (in test) [5]: 316%; pIC50 [5]: 9.60
IGF-1 A: B (H5D10Y16L17) DPI (ligand) | – | – | – | – | – | % insulin (in test) [5]: 479%; pIC50 [5]: 9.80
MIU-35: B^1(H5,H10,Y16,L17)25-C^1-A^1(H8,N18,N21) (from UniProt P05019 49-110) (ligand) | 17.4% | 61.4% | 3.2% | 17.4% | 61.4% | % (in vitro activity, IGF-1 R) [1]: 3.2%
MIU-43 DP8Mut3: B^1(H5,10Y16L17R29)30-C^1des9-12-A^1(H8,N18,21) (from UniProt P05019 49-110) (ligand) | 16.7% | 97.5% | – | – | – | % (in vitro activity, column IGF-1R) [1]: 14.2%
MIU-56: C8-PEG20K B^1(H5,Y16,L17)25-PEG8-K-PEG4-A^1(N18,N21) (from UniProt P05019 49-110) (ligand) | – | – | – | – | 14.8% | –
MIU-57: B^1(H5,Y16,L17)25-C^1-A^1(N18,21) with a 20 kDa PEG on the N-terminus of the B chain (from UniProt P05019 49-110) (ligand) | 1.1% | 4.5% | 1.2% | 1.1% | 3.1% | % (in vitro activity, IGF-1 R) [1]: 1.2%
MIU-58: dimer of two B^1(H5,Y16,L17)25-C^1-A^1(N18,21) linked head to head via a 20 kDa PEG chain (from UniProt P05019 49-110) (ligand) | – | – | 2.6% | 5.8% | 19.7% | –
MIU-67: B^1(H5,Y16,L17)25-C^1(K8)-A^1(N18,21), two 10K PEG chains at the N-terminus and C8 (from UniProt P05019 49-110) (ligand) | – | – | < 0.1% | 0.1% | 0.2% | –
MIU-68: B^1(H5,Y16,L17,K22)25-C^1(K8)-A^1(N18,21), two 10K PEG chains at the N-terminus and B22 (from UniProt P05019 49-110) (ligand) | – | – | < 0.1% | 0.1% | 0.4% | –
MIU-69: B^1(H5,Y16,L17)25-C^1(K8)-A^1(K14,N18,21), two 10K PEG chains at the N-terminus and A14 (from UniProt P05019 49-110) (ligand) | – | – | < 0.1% | 0.5% | 1% | –
MIU-78 mono-20K-TC: B1-20K B^1(H5,10Y16L17K29)29: A^1(H8N18,21) (ligand) | 3.2% | 8.2% | – | – | – | –
MIU-79 di-10K-SC: B1, A14-10K B^1(H5,10Y16L17R29)30-C^1des9-12-A^1(H8,K14,N18,21) (from UniProt P05019 49-110) (ligand) | 0.2% | 1.7% | – | – | – | –
Thr,A8: B^1(H5,10Y16L17)25-C^1-A^1(T8N18,21) (from UniProt P05019 49-110) (ligand) | 8.4% | 20.4% | – | – | – | % (in vitro activity, IGF-1 R) [1]: 3.7%
di-10K-TC: B1, A14-10K B^1(H5,10Y16L17R29)29: A^1(H8K14N18,21) (ligand) | 2.1% | 6.4% | – | – | – | –
